These results are taken from the nanobody polyreactivity screen of Harvey et al. (2022).

The series is described as follows: yeast display, Sf9 membrane polyspecificity reagent, FACS + sequencing; frameworks hold sequencing errors. The procedure, abridged: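 A synthetic nanobody library was expressed on Saccharomyces cerevisiae BJ5465 by galactose induction for 36–48 hours. The library was stained for 1 hour at 4 °C with 10% biotinylated, detergent-solubilized Sf9 membrane reagent and enriched with streptavidin microbeads before FACS. Low and high (top ~1%) gates were set on anti-HA fluorescence for expression and streptavidin fluorescence for reagent binding, and each polyreactivity label reflects the gate of origin.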
On to “QVQLVESGGGLVQAGGSLRLSCAASGSTFTSYDMGWYRQAPGKERELVAAITISSGGTYYADSVKGRFTISRDNAKITVYLQMNSLKPEDTAVYYCAADIFADASYDYWGQGTQVTVSS”, for which the “polyreactivity (PSR sort gate)” value was “low polyreactivity”. As to “QVQLVESGGGLVQAGGSLRLSCAASGSTFTTNAMGWDRQAPGKERELVAAITWSVGSTYYADSVKGRFTISRDYAKNTVYLQMNSVKPEDNAVYYCAAYHPPGDTYEYWGQGTQVTVSS”, the “polyreactivity (PSR sort gate)” value was “low polyreactivity”.

For “QVQLVESGGGLVQAGGSLRLSCAASGSTFTTYAMGWYRQAPGKERELVAVITDSGGTYYADSVKGRFTISRDNAKNTVYLQMNSLKPEDTAVYYCNRFFPPTDYEFDSWGQGTQVTVSS”, the “polyreactivity (PSR sort gate)” value is reported as “low polyreactivity”.

As to “QVQLVESGGGLVQAGGSLRLSCAASGSTFTTYAMGWYRQAPGKESELVAAITWSVGSTYYADSVMGRFTISRDNAKNTVYLQMNSLKPEDTAVYYCAADPTGGVGFDGYYWGQGTQVTVSS”, the “polyreactivity (PSR sort gate)” value is “low polyreactivity”.

In the case of “QVQLVESGGGLVQAGGSLRLSCAASGSTFTVNGMGWYRQAPGKERELVASITWSGGSTYYADSVKGRFTISRDNAKNTVYLLMNSLKPEDTAVYYCAADEKLYITGYDYWGHGTQVTVSS”, the “polyreactivity (PSR sort gate)” value is recorded as “low polyreactivity”. For the sequence “QVQLVESGGGLVQAGGSLRLSCAASGSTFTVNGMGWYRQAPGKERELVASITWSGGSTYYADSVKGRFTISRDNAKNTVYLQMNSLNPEDTAVYYCAADEKLYITGYDYWVQGTQVTVSS”, the “polyreactivity (PSR sort gate)” value is given as “low polyreactivity”. On to “QVQLVESGGGLVQAGGSLRLSCAASGSTFTVNGMGWYRQAPGKERELVASITWSGGSTYYADTVKGRFTISRDNAKNTVYLQMNSLKPEDTAVYYCAADEKLYITGYDYWGQGTQVTVSS”, for which the “polyreactivity (PSR sort gate)” value is “low polyreactivity”.

With “QVQLVESGGGLVQAGGSLRLSCAASGSTFTVYAMGWYRQAPGKERELVAAISSSTGSTYYADSVKGRFTISRDNAKNTVYLQMNSLKPEDTAVYYCAADVYQVTTSSYTEFEYWGQGTQVTVSS”, the “polyreactivity (PSR sort gate)” value was “low polyreactivity”.

Take “QVQLVESGGGLVQAGGSLRLSCAASGSTFTWNVMGWYRQAPGKERELVASITSGDSTYADSVKGRFTISRDNAKNTVYLQMNSLKPEDTAVYYCNVGYDQEKYGYWGQGTQVTVSS”: the “polyreactivity (PSR sort gate)” value is “low polyreactivity”. Next, “QVQLVESGGGLVQAGGSLRLSCAASGSTFTWYAMGWSRQAPGKERELVADISYGGGSTYYADSVKGRFTISRDNAKNTVYLQMNSLKPEDTAVYYCAAESIPYYRYDYWGQGTQVTVSS”: “low polyreactivity”. Next, “QVQLVESGGGLVQAGGSLRLSCAASGSTFTYNAMGWYRQAPGKERELVAVIRPGGNTNDADSVKGRFTISRDNAKNTVYLQMNSLKPEDTAVYYCAKYFGNYSIYDYWGQGTQVTVSS”: “low polyreactivity”; “QVQLVESGGGLVQAGGSLRLSCAASGSTFTYNARGWYRQAPGKERELVAVIRPGGTTNYADSVKGRFTISRDNAKNTVYLQMNSLKPEDTAVYYCAKFFGNYSIYDYWGQGTQVTVSS”: “low polyreactivity”; “QVQLVESGGGLVQAGGSLRLSCAASGSTFTYNTMGWYRQAPGKERELVAAINTTGNTYADSVKGRFTISRDNAKNTVYLQMNSLKPEDTAVYYCNTDYVPRRHDMDYWGQGTQVTVSS”: “low polyreactivity”.

For “QVQLVESGGGLVQAGGSLRLSCAASGSTFTYNTMGWYRQAPGKERELVAAISSGGSTYYADSVKGRFTISRDNAKNTVYLQMNSLKPEDTAVYYCAATAQKDSRYGSRYYYWGQGTQVTVSS”, the “polyreactivity (PSR sort gate)” value is “high polyreactivity”. Under “QVQLVESGGGLVQAGGSLRLSCAASGSTFTYYAMGWYRQAPGKERELVAAIRNGGSTNYADSVKGRFTISRDNAKNTVYFQMNSLKPEDTAVSYCAADQYYYTQPCDMDYWGQGTQVTVSS” stands “high polyreactivity”. Turning to “QVQLVESGGGLVQAGGSLRLSCAASGSTFTYYAMGWYRQAPGKERELVAAISSTDSTYYADSVKGRFTISRDNAKNTVYVQMNSLKPEDTAVYYCAAVRFSHSRETRRGYWGQGTQVTVSS”, the “polyreactivity (PSR sort gate)” value is on record as “high polyreactivity”. Next, “QVQLVESGGGLVQAGGSLRLSCAASGSTFTYYAMGWYRQAPGKERELVAAITFRGDSTYYADSVKGRFTISRDNAKNTVYLQMNSLKPEDTAVYYCNADSISSTYYDEDYWGQGTQVTVSS”: “low polyreactivity”; “QVQLVESGGGLVQAGGSLRLSCAASGSTFTYYAMGWYRQAPGKERELVADISRDGGSTYYADSVKGRFTISRDNAKNTVNLQMNSLKPEDTAVYYCATDMVYKYDYWGQGTQVTVSS”: “low polyreactivity”. On to “QVQLVESGGGLVQAGGSLRLSCAASGSTFTYYAMGWYRQAPGKERELVASINWSGGSTRYADSVKGRFTISRDNAKNTVYLQMNSLKPEDTAVYYCAARKSPRSQVRGRSYYWGQGTQVTVSS”, for which the “polyreactivity (PSR sort gate)” value was “high polyreactivity”. Next, “QVQLVESGGGLVQAGGSLRLSCAASGSTFTYYSMGWYRQAPGKERELVDAITGRGGRTYYADSVKGRFTISRDNAKNTVYLQMNSLKPEDTAVYYCARYQSSDTYWTKYDYWGQGTQVTVSS”: “high polyreactivity”; “QVQLVESGGGLVQAGGSLRLSCAASGSTFVDYAMGWYRQAPGKERELVAAISSSGSTNYADSVKGRFTISRDNAKNTVYLQMNSLKPEDTAVYYCNADGNPDFYYSFYDEYDYWGQGTQVTVSS”: “low polyreactivity”; “QVQLVESGGGLVQAGGSLRLSCAASGSTFVGNAMGWYRQAPGKERELVAAITWSGGTYYADSVKGRFTISRDNAKNTVYLQMNSLKPEDTAVYYCNAEWRVYPDLYDYWGQGTQVTVSS”: “low polyreactivity”. Consider “QVQLVESGGGLVQAGGSLRLSCAASGSTFVGYAMGWYRQAPGKEMEFVAAITRGGSTNYADSVKGRFTISRDNAKNTVYLQMNSLKPEDTAVYYCAARDRREGFIFDYWGQGTQVTVSS”, for which the “polyreactivity (PSR sort gate)” value was “low polyreactivity”. “QVQLVESGGGLVQAGGSLRLSCAASGSTFVGYAMGWYRQAPGKERELVAAISGSGTSTYYADSVKGRFTISRDNAKNTVYLQMNSLKPEDTAVYYCNADPIFVYSSYNYWGQGTQVTVSS”: the “polyreactivity (PSR sort gate)” value is “low polyreactivity”. Next, “QVQLVESGGGLVQAGGSLRLSCAASGSTFVGYAMGWYRQAPGKERELVADIDSIGGSTYYADSVKGRFTISRDYAKNTVYLQMNSLKPEDTAVYYCAARRFDTALVLYDYWGQGTQVTVSS”: “low polyreactivity”; “QVQLVESGGGLVQAGGSLRLSCAASGSTFVHYAMGWYRQAPGKEREFVASITRSGTSTYYADSVKGRFTISRDNAKNNVYLQMNSLKPEDTAVYYCNAELLGARQYWYYRYYYWGQGTQVTVSS”: “high polyreactivity”.

With “QVQLVESGGGLVQAGGSLRLSCAASGSTFVINAMGWYRQAPGKEREFVAAISYSRGITYYADSVKGRFTISRDNAKNYVDLQMNSLKQEDTAVYYCAVSPFENRDSGYDYWGQCTQVTVSS”, the “polyreactivity (PSR sort gate)” value is recorded as “low polyreactivity”.

For “QVQLVESGGGLVQAGGSLRLSCAASGSTFVINAMGWYRQAPGKERELVADIDYRGGSTNYADSVKGRFTISRDNAKNTVYLPMNSLKPEDTAVYYCNKRYVIRRRGYDYWGQGTQVTVSS”, the “polyreactivity (PSR sort gate)” value is on record as “low polyreactivity”. With “QVQLVESGGGLVQAGGSLRLSCAASGSTFVINAMGWYRQAPGKERELVARISSSGGRTYYADSVKGRFTISRDNAKNTVYLQMNSLKPEDTAVYYCAKRGYLFLRGSVRVGYNYWGHGTQVTVSS”, the “polyreactivity (PSR sort gate)” value is “low polyreactivity”. Under “QVQLVESGGGLVQAGGSLRLSCAASGSTFVIYAMGWYRQAPGKERELVAAISGRTGSTYYADSVKGRFTISRDNAKNTVYLQMNSLKPEDTAVYYCAAYKRSGLKYGHWGQGTQVTVSS” stands “high polyreactivity”.

As to “QVQLVESGGGLVQAGGSLRLSCAASGSTFVIYAMGWYRQAPGKERELVATITSGGSTYYADSVKGRFTISRDNAKNTVYLQMNSLKPEDTAVYYCAADDWGWPFYYYDDPMDYWGQGTQVTVSS”, the “polyreactivity (PSR sort gate)” value was “high polyreactivity”. Next, “QVQLVESGGGLVQAGGSLRLSCAASGSTFVKNAMGWYRQAPGKERELVAAISYRGGRTYYADSVKGRFTISRDNAKNTVYLQMNSLKPEDTAVYYCAADYISVYGYEYYYWGQGTQVTVSS”: “high polyreactivity”; “QVQLVESGGGLVQAGGSLRLSCAASGSTFVKNTMGWYRQAPGKERELVAAIRSSGGSTYYADSVKGRFTISRDNAKNTVYLQMNSLKPEDTAVYYCAAPRVSVHGGGYWGQGTQVTVSS”: “high polyreactivity”. As to “QVQLVESGGGLVQAGGSLRLSCAASGSTFVKNVMGWYRQAPGKERELVAGITRGGSTYYADSVKGRFTISRDNAKNTGSLQMNSLKPEDTAVYYCANRYAWDRDYWGQGTQVTVSS”, the “polyreactivity (PSR sort gate)” value is given as “high polyreactivity”. Under “QVQLVESGGGLVQAGGSLRLSCAASGSTFVKYTMGWYRPAPGKERELVAAIRRRGGSTYYADSVKGRFTISRDNAKNTVYLQMNSLKPEDTAVYYCATAGQGAFWGQGTQVTVSS” stands “high polyreactivity”; under “QVQLVESGGGLVQAGGSLRLSCAASGSTFVKYVMGRYRQAPGKERELVAAISRSSVRTYYADSVKGRFTISRDNAKNTVYLQMNSLKPEDTAVYYCAVVLSTYSYADYDYWGQGTLVTVSS”, “high polyreactivity”; under “QVQLVESGGGLVQAGGSLRLSCAASGSTFVLYAMGWYRQAPGKERELVAAIDSSGGSTYYADSVKGRFTISRDNAKNTVYLQMNSLKPEDTAVYYCAKAGRYANLPYGYWGQGTQVTVSS”, “high polyreactivity”. Next, “QVQLVESGGGLVQAGGSLRLSCAASGSTFVLYAMGWYRQAPGKERELVAAISTSGGRTYYADSVKGRFTISRDNAKNTVNLQMNSLKPEDTAVYYCAALTYVAQYDEYWGQGTQVTVSS”: “low polyreactivity”; “QVQLVESGGGLVQAGGSLRLSCAASGSTFVNAMGWYRQAPGKERELVAAISLSGDSTYYADSVKGRFTISRDNAKNTVYLQMNCLKPEDTAVYYCNADGLGGEDPEYLWYPVPDYDYWGQGTQVTVSS”: “low polyreactivity”; “QVQLVESGGGLVQAGGSLRLSCAASGSTFVNNAMGWYRQAPGKERELVAAIRNTGGRTYYADSVKGRFTISRDNAKNTVYLQMNSLKPEDTAVYYCAALSRVRTLWRMDYWGQGSQVTVSS”: “high polyreactivity”. Under “QVQLVESGGGLVQAGGSLRLSCAASGSTFVNNAMGWYRQAPGKERELVAAIRSSDGRTYYADSVKGRFTISRDNAKNTVYLLMNSLKPEDTAGYYCNAGYWRFIDSYDYWGQGTQVTVSS” stands “high polyreactivity”.
